Assay [1] deals with T1, 诺如病毒GII.4病毒样颗粒 (GII.4 VP1 virus-like particle) (诺如病毒GII.4 (norovirus GII.4), UniProt P54635 3-539).
T1 construct: also called GII.4VLP; 天然结构的GII.4病毒样颗粒
T1 chain: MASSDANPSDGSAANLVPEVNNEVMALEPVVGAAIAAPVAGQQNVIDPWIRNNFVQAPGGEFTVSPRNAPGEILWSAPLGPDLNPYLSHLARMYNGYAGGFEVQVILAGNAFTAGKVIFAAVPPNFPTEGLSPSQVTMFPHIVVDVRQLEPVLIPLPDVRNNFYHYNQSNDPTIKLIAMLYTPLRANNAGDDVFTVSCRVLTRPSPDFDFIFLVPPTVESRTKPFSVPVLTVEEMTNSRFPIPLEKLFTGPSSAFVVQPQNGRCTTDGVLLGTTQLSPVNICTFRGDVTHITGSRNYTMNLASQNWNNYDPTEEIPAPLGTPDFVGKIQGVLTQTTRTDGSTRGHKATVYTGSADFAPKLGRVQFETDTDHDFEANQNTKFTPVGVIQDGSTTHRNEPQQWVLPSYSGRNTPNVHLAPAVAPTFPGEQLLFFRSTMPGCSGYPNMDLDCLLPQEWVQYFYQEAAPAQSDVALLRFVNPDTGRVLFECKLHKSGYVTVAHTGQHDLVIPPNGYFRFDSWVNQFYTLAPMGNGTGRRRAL
The assay can be described thus: blocking ELISA (surrogate neutralisation), VLP to PGM; reference D11.

The target of assay [2] is T2, 诺如病毒GI.1病毒样颗粒 (GI.1 VP1 virus-like particle) (诺如病毒GI.1 (norovirus GI.1), UniProt Q83884 3-530).
T2 construct: VLP assembled from VP1
T2 sequence: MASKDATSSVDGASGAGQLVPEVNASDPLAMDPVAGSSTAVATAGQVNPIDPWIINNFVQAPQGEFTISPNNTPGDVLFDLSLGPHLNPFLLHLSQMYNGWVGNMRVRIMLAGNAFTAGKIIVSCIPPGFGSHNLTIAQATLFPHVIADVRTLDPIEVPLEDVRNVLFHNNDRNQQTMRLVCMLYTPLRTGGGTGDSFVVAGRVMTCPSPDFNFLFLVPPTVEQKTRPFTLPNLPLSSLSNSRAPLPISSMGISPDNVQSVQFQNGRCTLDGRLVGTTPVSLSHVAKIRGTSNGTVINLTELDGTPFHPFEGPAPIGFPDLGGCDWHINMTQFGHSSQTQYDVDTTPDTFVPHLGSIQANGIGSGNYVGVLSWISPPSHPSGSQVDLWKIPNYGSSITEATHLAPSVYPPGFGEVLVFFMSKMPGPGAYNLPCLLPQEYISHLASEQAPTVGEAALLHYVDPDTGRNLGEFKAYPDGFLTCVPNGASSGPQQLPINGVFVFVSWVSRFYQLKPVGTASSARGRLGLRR
The assay can be described thus: ELISA, 100 ng GI.1 VLP coated per well. For orientation: In an ELISA, binding on a coated surface is turned into a signal by an enzyme label.

Assay [3] deals with T1, 诺如病毒GII.4病毒样颗粒 (GII.4 VP1 virus-like …). The assay can be described thus: blocking ELISA (surrogate neutralisation), VLP to PGM; reference G9.
The target is the same in assay [4]. The assay can be described thus: blocking ELISA (surrogate neutralisation): mAb titrated against 0.5 ug/ml GII.4 VLP, binding of VLP to coated PGM read.

B1: 8E1单抗 (抗诺如病毒GII.4型鼠源单克隆抗体8E1) (antibody, V domains shown)
VH: EIQLQQSGPELMKPGASVKISCKASGYSFTDYYMHWVKQSHGKSLEWIGYIDPFNGDTGYNQKFKVRATLTVDESSTTAYMHLSSLTSDDSAVYYCARDDWGSPFSYWGQGTLVTVSA
VL: DIQMTQSPSSLSASLGESVSLTCRASHDIGSNLDWLQQEPDGTIKRLIYATSTLDSGVPKRFSGSRSGSDYSLTISSLESEDFVEYYCLQYASSPRTFGGGTKLEIKR
notes: Mouse IgG1, kappa; also called m8E1
Turning to B1, the “fold of neutralising (blocking) activity against D11” value in assay [1] is over 2 fold. The binding result in assay [2] is “no binding (tested: 5ug/ml)”. Further, the “fold of neutralising (blocking) activity against G9” value in assay [3] was about 16 fold. Besides, the EC50 (as a rule, the concentration giving half of the maximal effect) in assay [4] was 0.0436 µg/mL.

Values taken from patent CN106188281A (INST PASTEUR OF SHANGHAI CHINESE ACAD OF SCIENCES, dated 2016).
